Test results published in patent US20040057952A1 (IMMUNOGEN, published 2004).

Molecular target: T1, Muc16 on tumor cells (human, UniProt Q8WXI7 1-14507)
T1 construct: whole, on cells; Endogenous protein; also called CA125
Experiment: flow cytometry on WISH cells

fold fluorescence shift at saturation binding against MJ-171: > 5 fold
B1: OC125 (antibody)
chain 1: QVQLQESGPELVKPGASVKISCKASGYTFTDYNMHWVKQSHGKSLEWIGYIYPYNGDTGYNQKFRNKASLTVDTSSSTAYMELRSLTSEDSAVYYWARSGGFWYFDVWGQGGTTVTVSS
chain 2: DIQMTQSPAILSASPGEKVTMTCRATPSVSYMHWYQQKPGSSPKPLIYTTSNLASGVPARFSGGGSGTSYSLTVSRVEVEDAATYYCQQWSRSPPTFGAGTKLEIK
